Assay: label from the status in PepcDB records

| Sequence | protein production |
| --- | --- |
| MEKKYIMFIIAMAISFLTTPIVRKFAKHIKAIDIPKDKRRVHKKPIPKIGGLAIYLAFVLVLVLKKGHLEKAEMGIIFGGGIIVLGGFIDDLKCLRPLYKVLFQLLGAFVLIGFGLRISMVTNPLSNSFSYIHINNFIGIAITIIWIIGVTNAFNLIDGLDGLSAGVGFISSVTIAIVAFLNGPTRSEAEILSVILAGSILGFLPYNFNPASIFMGDTGAQFLGFALAAISIQGAIKSASAVVLAVPILVLGLPIYDTIFAIIRRKINGKPITQADRGHLHHRLLDMGLSQKQAVLIMYFISAIMGLVAVIAMQLTNTKAYVIFAGAVICIVGLAWKFGLFKHK | failed |
| AHTKISPLGIDTLCFKVSTNPGQPLQPIAKVASGGELSRISLAIQVITAQKVDTPSLIFDEVDVGISGPTAAVVGKMLRTLGESTQVLCVTHLPQVAGCGHNQLFVAKHTKSGKTETQMRALNLEERVEELARLLGGTQITAHTLANAKELLNAA | failed |
| SRGMTPGSRLIDYQLIDSTEELAAILGCGHPSSIHKITRVRLANDIPMAIESSHIPFELAGELNESHFQSSIYDHIERYNSIPISRAKQELEPSAATTEEANILGIQKGAPVLLIKRTTYLQNGTAFEHAKSVYRGDRYTFVHYMDRLS | failed |
| MNSVYFLNVSEALATPQDKLHTVRLFGTVAADGLTMLDGAPGVRFRLEDKDNTSKTVWVLYKGAVPDTFKPGVEVIIEGGLAPGEDTFKARTLMTKCPLEHHHHHH | failed |
| MMTLSDLPSDLAEEVLSKIPVTSLRGVRATCKKWNTLSKDRSFTRKHLAQAKAAAAREFMVVMVMDFQVYLMGINLHKDVDATINGQGKLISLDDSNQVDISYVYHCDSLVLCIPKDCARLVVWNPYWGQTLWFKPTSLRHFPHWYMYAIGYQMRRGNRDAKTSRWLLTCRPTTKTITKNTIDHL | failed |
| MHLPPKLALTTGVLLVALPLATPAWGQPPTPASPLVQQLNNGNWLDPKEAETLRDELYYQRAIHAYMTMLPALNVIGMRDGSEKVFGAGYNVLPVWKERMDARTMVPTPNADVIYSMSYLDLKKTGPLVVKAPANVIGMFTDFFQRTLTDVGAIGPDRARGGLYLILPPDYDGHVPSSYFVVKSPTYNVFLFFRTIMGQGKGKPDPAPAVKAAETTRVYPLWAEEKDIKPMEFPDGSGKHINMMYPVDQEYWTKLKEFVDYEPVSAIDPELRGVLASIGIVKGQPFKPTAREQELLKRAVETAPKMILAMRQLGREDKRHLYYKDRQWERAWAGATAEWMQDSYLDVNQRATFFQIAYSSAPAMVMRTTGAGSKYPFTARDANGEFLNGSATYKLRMPPDAPAALFWAVTAYNVTDGTMPETDQLMPSTNGYYDIPKQKDGSTEIWFGPQKPADVADAAFIKTIPNRNFLVTLRLYGAEDAFYDQTWKPDDVVKVKLEHHHHHH | not failed |
| MEDPLGRLEWIKFLSAFYDKEDKAENYFNQQVSKVMATENKVSSLKKPKVAFGMVDNGKVYIPAKNSYAAKMVDMAGGDYIFKDLNNKSGYITLEDFYSKSKDADVLIYSSSKEYTPSLKSMLSAAPILKTIKPVKNKKVWCFGKDYYQAIDKTDEIIEDLASIFHPESFKGYKIKHYSHLEHHHHHH | not failed |
| MAIKNAFYAQSGGVTAVINASACGVIQTARKHPDQIGKVYAGRNGIIGALKEELIDTSLESDDAIQALIHTPGGAFGSCRYKLKNISENQREYERLIEVFRAHDIGYFFYNGGGDSQDTAYKVSQLADRMGYPITCIGVPKTVDNDLPFTDCCPGFGSVAKYIATSTLEASLDIKSMCETSTKVFILEVMGRHAGWIAAAGGLAGQSEGEPPHVILFPEIPFNREKFLERVDQCVRDYGYCVVVASEGAQYEDGRFVADAGAKDAFGHTQLGGVAPALANMVKQALGHKYHWAVADYLQRAARHIASATDVEQAYAVGKAAVEMALAGKQALMPTIVRDQAKPYRWSIGEANLSEVANQEKKMPIHYITDNGFGITQDCRDYLQPLIAGESFPPFDDGLPRVAKLKNQLVEKKLRTEFELLEHHHHHH | failed |
| MGYRNLQDCVFDLEARGDLVRIDVETDPNIEIGAIQRRVYQAGGPALLFTRVKGCRFPMLGNLFGTMARTKFIFRDTLDDIRRLVELKINPTAVLKNPKEYAGAPLAALRLLPRQVSRGPILGHRTTIAELPQLKSWPMDGGPFVTLPQVYSESPKRPGFRFSNLGMYRVQLAGNDYRLNEEVGVHYQIHRGIGVHHAEAIERGEPLRVNIFVGGAPSMTVAAVMPLPEGLPELSFAGLLAGHRLAMVCRRGELPMPAEADFVITGTIDPNKTLPEGPFGDHLGYYSLAHPFPVLRVENVWHRDDAIWPFTSVGRPPQEDTTFGAFIHELTGALIPEVLPGVKGVHAVDAAGVHPLLLAVGSERYVPYEAERVPRELLTIASAILGNGQLSLAKYLFITPNEDNPPDIHHIDEFLTFILERADWRRDLHFHTRTTIDTLDYSGSGLNEGSKVIVAAAGPKRRDLPTEVPGGLRLPDGFTTPHVCLPGILAVTGPAFPGYGDNGAPDMERFCASFAPDDPINRFPLVVIVDDSAFTSRTLNNFLWVTFTRSNPAADIHGIGSSVRCKHWGCGGALVIDARVKPHHAPPLLDVPEIERRVDALGAPGGPLRGII | failed |
| DDFETSLTELEPLEKDAYIVRLVFAGSTTTEPIVSSLSTAYDIKINILEANIKNTKNGTVGFLVLHIPYISSVDFGKFEKELIERQVKMEVLRHG | not failed |
| MDEQEFRKQLTLKPVEEEHIDQFNELLSYVFQVTEADIEESGFENKRAFIKSKQPILELSKVFGWFHENQLISQIAIYPCEVNIHGALYKMGGVTGVGTYPEYANHGLMKDLIQTALEEMRQDKQWISYLFPYNIPYYRRKGWEIMSDKLSFKIRDTQLPKTVPVPGMIERLAVDHPDVFDVYARFARQNHGALIRSAFNWEEYWRFENEEERTAAVYYGANQEPLGVLFYWVADEVFHIKEMFYLNQEARNGLWNFITAHFSMVYWVKGDIYKNEPLAFLLEDSQIKESIEPYYMARIVDVKAFLENFPFESTAKPFHFVVKDPVAEWNNGIFGLIWDENDQVTITDEPLGTAVHLDIQTLTCLVMNYRRPSYLHRIERIDTDKETLNSLERIFPDQEAYFSDYF | not failed |
| MIATLRSYLSADKRGLVGPAFLFLSLLASISDPFGGYGMTFLRRFLFWVLVLGVAGGIAFLSHRMVERHLSGAPLLGKDLLIVLLVTLSFTPSLWVLIFLFAAPSTGTAPDMWSMARYGTIFASGLIVLRRGVFGQSVPEEESLQPRIYKRLPEGFSEQILRLTVRDHSVDVVTDKGVHTIRSRFGDAIDEMVPISGHCTHRSHWVTDTAIESVERSGGKIHLRLSNGDLIPVSRKYRPALEEAGIV | failed |
| SSVVKSIELVLPEDRIYLAGSSIKGQVILTLNSTLVDPIVKVELVGRGYVEWSEEAGASCDYSRNVICNNKADYVHKTKTFPVEDNWLSAGSHTFDFHFNLPPRLPSTFTSKFGHVFYFVQASCMGREHILAKKRMYLLVQGTSTFHKETPFQNPLFVEAEEKVSYNCCRQGTVCLQIQMERNTFTPGEKVVFTTEINNQTSKCIKTVVFALYAHIQYEGFTPSAERRSRLDSSELLRQEANTPVTRFNTTKVVSTFNLPLLLSVSSSTQDGEIMHTRYELVTTVHLPWSLTSLKAKVPIIITSASVDSAICQLSEDGVLPVNPDHQN | not failed |
| MDKKEYSETFYHPYKPYDIQVQLMETVYRVLSEGKKIAILESPTGTGKTLSLICATMTWLRMNKADIFTRMETNIKTNEDDSENLSDDEPDWVIDTYRKSVLQEKVDLLNDYEKHLNEINTTSCKQLKTMCDLDKEHGRYKSVDPLRKKRKGARHLDVSLEEQDFIPRPYESDSENNDTSKSTRGGRISDKDYKLSELNSQIITLLDKIDGKVSRDPNNGDRFDVTNQNPVKIYYASRTYSQLGQFTSQLRLPSFPSSFRDKVPDEKVKYLPLASKKQLCINPKVMKWKTLEAINDACADLRHSKEGCIFYQNTNEWRHCPDTLALRDMIFSEIQDIEDLVPLGKSLGICPYYASREALPIAEVVTLPYQYLLSESTRSSLQINLENSIVIIDEAHNLIETINSIYSSQISLEDLKNCHKGIVTYFNKFKSRLNPGNRVNLLKLNSLLMTLIQFIVKNFKKIGQEIDPNDMFTGSNIDTLNIHKLLRYIKVSKIAYKIDTYNQALKEEESSKNENPIKETHKKSVSSQPLLFKVSQFLYCLTNLTSEGQFFFEKNYSIKYMLLEPSKPFESILNQAKCVVLAGGTMEPMSEFLSNLLPEVPSEDITTLSCNHVIPKENLQTYITNQPELEFTFEKRMSPSLVNNHLFQFFVDLSKAVPKKGGIVAFFPSYQYLAHVIQCWKQNDRFATLNNVRKIFYEAKDGDDILSGYSDSVAEGRGSLLLAIVGGKLSEGINFQDDLCRAVVMVGLPFPNIFSGELIVKRKHLAAKIMKSGGTEEEASRATKEFMENICMKAVNQSVGRAIRHANDYANIYLLDVRYNRPNFRKKLSRWVQDSINSEHTTHQVISSTRKFFSMRSLNSR | failed |
| MAVSSGTFSTFLCIKTTSFRNPSTPLSSLRFASHPAAKLRLVRAVTSATESSEPTATNKRVPRGIMKPRPVSPEMQDIVELPEIARTQALKRIWAYIKEHDLQDPQNKREILCDEKLKKIFEGRDRVGFLEIAKLIGPHFL | failed |
| MKIMTKTLNRTTLGLALGLASSQLLAAGFALNEQSISGMGTGFAGRSSSADDASTVFGNPAGMSRIKREQISVGAAAVIAKTDIDNGRGTFGGSNDGDMVPVVGVPMGYYVKPIDDHWAFGLGVYVPFGLVTDYEKGFAGRYWGDKSHVQIVTFQPTVSYAFNDKVSIGFGPTINRIDGELTSATLNAATPGRNDGKVKIEGDDTAIGFNAGILVQATDTTRLGLTYHSKVDYKLKGKTKIEGSGFGPFGGQKYDASLDISTPESVDFSITQQLDENWTVYAGSTWTRWSRLQDITVNNDGVPALLGGSAGPIGTITEEQNWHDTWAHAIGASYKVNKEWTLRTGFSVDQSPTNNVNRSPRIPTGDRKIISFGAGWSPTDDLTIDVAYSYLREDETKIRDSSATKGSYSADYRNTAHGLGTSVTYRF | failed |
| MCTFCSIINRELEGYFVYEDEKFAAILDKYPVSLGHTLVIPKKHFENYLEADEDTLAELAKVVKLVSLGIKDAVKADGLRLLTNIGRSAGQVIFHLHVHIIPTWEGDYPDIFKSFKPRKEQEKEYYELLQKIIRESIENLKRKIGDYKWG | not failed |
| MKKNYMKALVVATTLAIPFATYSTPALAALKVEANQSVAAASDRTYDTEIKIYKDQKDEPSMVSQYIKDPKVTIAAGKKIVTVTMQDSDYFQYLRIEDKNQPGVFHDVKVLSEDKRKNGTKVVQFEIGEFEKKHNMQMHILIPAIGYDHKYQVQFEIKDPTVGNKETEKPDDNSNSGNTETDNPVDNQNMITDNKLRELVNKKVFNRKDLNTPITKEDLLQVKDLFLNTNEILDYSALKYMPNLKSLTVANAKIKDPSFFANLKQLNHLALRGNEFADVTPLVKMDNLESLDLSNNKITNVAPLTEMKNVKSLFLSGNQIEDVTALAKMEQLDYLNLANNKITNVAPLSNLKNVTYLTLAGNQIEDIKPLYTLPLKDLVLTRNKVKDLSGIDQLNQLQELWIGKNEITDVTPLSKMTQLKILNLPNNELKDITPLSSLVNLQKLDLEANYISDLSPVSNLKKLVFLSFVANEIRDVRPVIELSKTAYINVQNQKVFLEETEVNKEVKVPIYEKDGEISTKIRLKSDNGTYSNGVVKWSTPGEKVYEFGVKDPFADTGIFFTGSVIQNVVESKDGNTSKEDEKTEVVEFKDVPKGHWSEEAINYLAKEKLFIGYGNGEFGFGDNITRGQVALLIQRYLKLENNLEQKTAFTDTKGNMYETAIDAVVQAGIMTGYGNGMFRPDGVLTRYEMSVVLQRVFQLKENENSAENFKDVPNGHWAKGYVKALVDNKISKGDGEGNFLGDNFVTREQYAQFLYNAIKK | failed |
| MPPRIEDILPHRGSMLLLAHVDTWDDETLRASAHVDPTAWYADPEGAMPAWFGIELMAQAIAAHVGLLSMREGNPARPGVLLGSRKYEAHAPAFAPAQPLSIAVQEVLRSTEGHGAYACTIAAGGRDLAQAVIKVYQPTDFQAFIEGLEHHHHHH | failed |
| EIHHRKPHGPEAALENVDAKIAKLMGEGYAFEEVKRALEIAQNNVEVARSILREFAFPPPVSPRLNL | failed |

— a protein production outcome set (Wang et al. 2014)
